Experimental data taken from patent US12661385B2, “Modulation of mTORCI activity and autophagy via CIB2-RHEB interaction” (University of Maryland, Baltimore, priority 2018, dated 2026).

Legend:
[1] = test system: RPE-J cells; assay: LC3-II induction / LC3 flux immunoblots in transfected RPE-J cells; format: cell-based, rat; conditions: RPE-J cells overexpressing CIB2 vs GFP, in the presence of bafilomycin A1, 24 hrs
Experimental: FIG. 13. Loss of CIB2, specifically in the RPE, leads to LC3 flux deficits, while CIB2 overexpression, in vitro, restores LC3 flux._a-d, RPE whole mounts treated with DMSO or 50 μM bafilomycin A1 (Baf-A1) overnight show reduced levels of LC3-II, quantified in panels b and d, in Cib2 deficient mice as compared to WT controls, indicating autophagy deficits. Ratio for WT or RPE-Cre+; Cib2^+/+ was set to 1. e. Representative immunoblots for LC3-II induction in transiently transfected (GFP or CIB2-IRES-GFP) RPE-J cells treated with DMSO, 50 μM bafilomycin-A1 (Baf-A1), or 100 nM rapamycin (Rapa) for 24 hrs. f. Quantification of LC3 flux (ratio of LC3-II/actin in Baf-A1 to DMSO treated samples) or LC3B-II/actin ratio up on rapamycin treatment for immunoblots shown in (e). […]
Complementary to the findings of Cib2 mutant mice, over-expressing CIB2 in RPE-J cells increased LAMP-1 and ATG5-ATG12 complex proteins levels (FIG. 12c-d). […] To test this idea, we assessed LC3-II flux. LC3-I is a cytosolic protein which when lipidated with a phosphatidylethanolamine adduct (LC3-II form) localizes to the growing auto/phagosome membrane, and thus can be used as a reliable readout for the dynamic autophagic process (Valapala et al., Autophagy 10, 480-496 (2014); Kim et al., Noncanonical Autophagy Promotes the Visual Cycle. Cell 154, 365-376 (2013); Klionsky et al., Autophagy 12, 1-222 (2016)). […]

[2] = molecular target: Rheb (Homo sapiens, UniProt Q15382); assay: NanoSPD (nanoTRAP) interaction assay in COS-7 cells, Rheb; format: binding; set-up: host or cells: COS-7; conditions: filopodia tip co-accumulation
Text: FIG. 14. […] Arrowheads indicate filopodia tip accumulation of hCIB2-eGFP, * indicates no accumulation of indicted constructs in the red channel. c. Representative confocal images (top panel) showing CIB2 (green) interaction with Rheb (red) and Raptor (red) using NanoTRAP assay. […] Arrowheads indicate filopodia tip accumulation of indicated constructs, * indicates no accumulation of indicted construct in the red or far-red channel. Scale bar: 10 μm. d. Quantification for nanoTRAP assay for images shown above. *** p<0.001 by one-way ANOVA. e, Co-IP experiments show interaction between Raptor and CIB2.
To reveal the molecular mechanism of CIB2-mediated mTORC1 modulation, we focused on the TSC-Rheb-mTORC1 axis. We performed an interaction screen of specific proteins including TSC1, TSC2, mTORC1-specific subunit Raptor, mTOR kinase, and Rheb. We used a recently-published quantitative interaction assay known as nanoscale pulldown 2.0 (NanoSPD), in which eGFP-nanobody tag fused to the myosin-HMM domain (nanoTRAP) preferentially migrates to the filopodia (Bird et al., Molecular Biology of the Cell 28, 463-475 (2017)). CIB2-eGFP (bait) migrated efficiently to filopodia in COS-7 cells only in the presence of the nanoTRAP. […] Many downstream and upstream targets of mTORC1 regulate its activity via binding to the mTORC1-specific subunit Raptor. […]

Chain of Rheb (Q15382 whole entry): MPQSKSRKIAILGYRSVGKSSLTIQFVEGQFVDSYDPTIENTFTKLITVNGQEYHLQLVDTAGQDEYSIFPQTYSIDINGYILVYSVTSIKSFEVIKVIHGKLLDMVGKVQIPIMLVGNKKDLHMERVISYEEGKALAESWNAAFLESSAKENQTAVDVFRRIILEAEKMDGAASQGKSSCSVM

- Interaction with Rheb (NanoSPD) [2]: interacts with Rheb
B1: CIB2: calcium and integrin binding protein 2, over-expressed in cells from plasmid constructs; SEQ ID NO:1 (human), SEQ ID NO:2 (mouse) (protein)
chain: MGNKQTIFTEEQLDNYQDCTFFNKKDILKLHARFYELAPNLVPMDYRKSPIVHVPMSLIIQMPELRENPFKERIVEAFSEDGEGNLTFNDFVDMFSVLCESAPRELKANYAFKIYDFNTDNFICKEDLEMTLARLTKSELEEDEVVLVCDKVIEEADLDGDGKLGFADFEDMIAKAPDFLSTFHIRI
modifications: left off: large carriers
- Relative LC3 flux (ratio of LC3-II/actin in Baf-A1 to DMSO treated samples) [1]: markedly increased
